Values joined by “and” are separate entries in the source; they are usually repeats but may differ in a detail not shown here. Equal values may be shown once.
B1: human proteasome α4 subunit (natural protein, UniProt O14818 1-248, looked up)
chain: MSYDRAITVFSPDGHLFQVEYAQEAVKKGSTAVGVRGRDIVVLGVEKKSVAKLQDERTVRKICALDDNVCMAFAGLTADARIVINRARVECQSHRLTVEDPVTVEYITRYIASLKQRYTQSNGRRPFGISALIVGFDFDGTPRLYQTDPSGTYHAWKANAIGRGAKSVREFLEKNYTDEAIETDDLTIKLVIKALLEVVQSGGKNIELAVMRRDQSLKILNPEEIEKYVAEIEKEKEENEKKKQKKAS
notes: proteasome subunit α4 (PSMA7), human, residues 1-248; subcloned into the NdeI and SalI sites of pET28b; also called PSMA7
B2: human proteasome α5 subunit (natural protein, UniProt P28066 1-241, looked up)
chain: MFLTRSEYDRGVNTFSPEGRLFQVEYAIEAIKLGSTAIGIQTSEGVCLAVEKRITSPLMEPSSIEKIVEIDAHIGCAMSGLIADAKTLIDKARVETQNHWFTYNETMTVESVTQAVSNLALQFGEEDADPGAMSRPFGVALLFGGVDEKGPQLFHMDPSGTFVQCDARAIGSASEGAQSSLQEVYHKSMTLKEAIKSSLIILKQVMEEKLNATNIELATVQPGQNFHMFTKEELEEVIKDI
notes: proteasome subunit α5 (PSMA5), human, residues 1-241; the vector holds a TEV protease cleavage site preceding the gene; also called PSMA5
B3: human proteasome α3 subunit (natural protein, UniProt P25789 1-261, looked up)
chain: MSRRYDSRTTIFSPEGRLYQVEYAMEAIGHAGTCLGILANDGVLLAAERRNIHKLLDEVFFSEKIYKLNEDMACSVAGITSDANVLTNELRLIAQRYLLQYQEPIPCEQLVTALCDIKQAYTQFGGKRPFGVSLLYIGWDKHYGFQLYQSDPSGNYGGWKATCIGNNSAAAVSMLKQDYKEGEMTLKSALALAIKVLNKTMDVSKLSAEKVEIATLTRENGKTVIRVLKQKEVEQLIKKHEEEEAKAEREKKEKEQKEKDK
notes: proteasome subunit α3 (PSMA4), human, residues 1-261; the vector holds a TEV protease cleavage site preceding the gene; also called PSMA4
B4: human proteasome α2 subunit (natural protein, UniProt P25787 1-234, looked up)
chain: MAERGYSFSLTTFSPSGKLVQIEYALAAVAGGAPSVGIKAANGVVLATEKKQKSILYDERSVHKVEPITKHIGLVYSGMGPDYRVLVHRARKLAQQYYLVYQEPIPTAQLVQRVASVMQEYTQSGGVRPFGVSLLICGWNEGRPYLFQSDPSGAYFAWKATAMGKNYVNGKTFLEKRYNEDLELEDAIHTAILTLKESFEGQMTEDNIEVGICNEAGFRRLTPTEVKDYLAAIA
notes: proteasome subunit α2 (PSMA2), human, residues 1-234; subcloned into the NdeI and XhoI sites of pRSFDuet-1; no tag is named; also called PSMA2
B5: human proteasome α1 subunit (natural protein)
chain: not shown
notes: proteasome subunit α1 (PSMA6), human, residues 1-246; subcloned into the NdeI and SalI sites of pET28b; also called PSMA6

Molecular target: T1, human proteasome α7 subunit, wild type (human, UniProt P25788 1-255)
T1 construct: proteasome subunit α7 (PSMA3), human, residues 1-255; wild-type construct in pRSFDuet-1; also called PSMA3; α7 homotetradecamer; copies: 14
Experiment: native MS; α4 or α6 (4 μM monomers) mixed with α7 (2 μM tetradecamer), 20 °C, 1 h, 150 mM ammonium acetate
Conditions: both partners purified

T1 sequence (P25788 whole entry, the tested form may be a part): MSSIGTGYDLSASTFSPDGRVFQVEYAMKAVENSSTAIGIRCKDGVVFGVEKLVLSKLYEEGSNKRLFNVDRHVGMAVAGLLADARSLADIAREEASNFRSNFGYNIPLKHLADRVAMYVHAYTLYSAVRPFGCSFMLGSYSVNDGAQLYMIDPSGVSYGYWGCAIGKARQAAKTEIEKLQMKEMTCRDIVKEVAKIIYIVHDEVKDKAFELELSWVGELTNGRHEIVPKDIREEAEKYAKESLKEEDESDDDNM

Row | stoichiometry N | Binder
1 | 7 α7 subunits per α4 and 14 α7 subunits per α4 | B1

Molecular target: the molecule itself
Experiment: native MS; single proteins, 5–20 μM monomers, 150 mM ammonium acetate (pH 6.8–8.0), nanoflow electrospray
Conditions: not given

Row | Binder | stoichiometry N
2 | B2 | 2
3 | B3 | 2
4 | B1 | 2
5 | B4 | 2
6 | B5 | 2
